Measured values as given in patent US20260009008A1, “SYNTHETIC GENOME EDITING SYSTEM” (Pencil Biosciences Limited, priority 2021, published 2026).
“Also recorded” adds a separate entry of the source.

Columns and labels:
[1] = Observation of peptide aggregation / precipitation; assay type: physicochemical
Thioflavin T assay = assay type: physicochemical; settings: 200 μM peptide, 25 μM ThT, 37° C., excitation 450 nm
Source text: Appropriate self-assembling peptides (alternatively referred to as folding peptides as in a single folding structure) will form a structure which can be identified by thioflavin T (Tht) binding. Fluorescence emission assay of Thioflavin T binding is commonly employed to detect amyloid fibrils. Upon binding to amyloid fibrils, ThT gives a strong fluorescence signal at approximately 482-485 nm when excited at 450 nm (Xue et al. (2017) Royal. Soc. Open Sci. 4:160696, 'Thioflavin T as an amyloid dye: fibril quantification, optimal concentration and effect on aggregation).
Such peptides were tested for ability to self-assemble to provide a β-sheet supramolecular structure and nickase activity. Ability to provide a β-sheet supramolecular structure was determined by thioflavin T fluorescence binding (Xue et al. (2017) Royal Soc. Open Sci. 4:160696). Nickase activity was investigated by means of a molecular beacon assay combined with a gel plasmid cleavage assay.
Thioflavin T (ThT) was mixed with the peptides in reaction buffer solution. Peptides were diluted to 200 μM (from a stock solution of 4.4 mM in DMSO) using a reaction buffer solution (the same buffer as used for the initial molecular beacon assays as set out below). […] The emission signal at 485 nm was measured every 5 minutes using an excitation wavelength of 450 nm. […]

plasmid DNA (pBR322) = test: Gel plasmid cleavage assay; assay type: biochemical
Source text: For this reason a further gel plasmid cleavage assay was employed to look for cleavage. Such a gel cleavage assay can differentiate between plasmid that is intact (no cleavage), nicked (ssDNA cleavage) and linearised (dsDNA cleavage) as the three plasmid species will migrate differently on an agarose gel. Intact plasmids have a supercoiled structure and therefore can migrate easily through an agarose gel whereas a ssDNA cleavage on the plasmid will relax this supercoiled structure. This produces a relaxed circle/nicked structure that migrates more slowly through the pores. The dsDNA cleavage of a plasmid produces a linearised plasmid. The linear structure migrates faster than a relaxed circular structure although not as fast as the supercoiled structure.
To optimize the assay, plasmid DNA (pBR322) was mixed with increasing concentrations of the peptide bL or bN, in the presence of Zn^2 + ions. […] The percentage of nicked species increases with greater peptide concentration for both bL and bN. […] An increasing proportion of the plasmid DNA is also observed in the wells of the gel. This DNA can be binding to the peptide causing a complex that is unable to migrate into the gel.

## LELDLHL [bD]
[1]
  aggregation / precipitation of peptide: least propensity to aggregate and to precipitate
Thioflavin T assay
  Thioflavin T emission signal at 485 nm (amyloid-like fibrils): high emission signal was measured instantly; also recorded: higher propensity to produce a highly stable amyloid beta sheet structure; also recorded: indicative of production of amyloid β-sheet structure
Plasmid DNA (pBR322)
  cleavage of plasmid: some cleavage
  percentage of cleavage versus peptide concentration: increase with peptide concentration
